The target of the experiment is hT1R2-hT1R3, human sweetness receptor (human) (UniProt Q8TE23). Briefly: cell-based or functional assay.
UniProt Q8TE23, sequence (Q8TE23 20-839, chain 1 of 2): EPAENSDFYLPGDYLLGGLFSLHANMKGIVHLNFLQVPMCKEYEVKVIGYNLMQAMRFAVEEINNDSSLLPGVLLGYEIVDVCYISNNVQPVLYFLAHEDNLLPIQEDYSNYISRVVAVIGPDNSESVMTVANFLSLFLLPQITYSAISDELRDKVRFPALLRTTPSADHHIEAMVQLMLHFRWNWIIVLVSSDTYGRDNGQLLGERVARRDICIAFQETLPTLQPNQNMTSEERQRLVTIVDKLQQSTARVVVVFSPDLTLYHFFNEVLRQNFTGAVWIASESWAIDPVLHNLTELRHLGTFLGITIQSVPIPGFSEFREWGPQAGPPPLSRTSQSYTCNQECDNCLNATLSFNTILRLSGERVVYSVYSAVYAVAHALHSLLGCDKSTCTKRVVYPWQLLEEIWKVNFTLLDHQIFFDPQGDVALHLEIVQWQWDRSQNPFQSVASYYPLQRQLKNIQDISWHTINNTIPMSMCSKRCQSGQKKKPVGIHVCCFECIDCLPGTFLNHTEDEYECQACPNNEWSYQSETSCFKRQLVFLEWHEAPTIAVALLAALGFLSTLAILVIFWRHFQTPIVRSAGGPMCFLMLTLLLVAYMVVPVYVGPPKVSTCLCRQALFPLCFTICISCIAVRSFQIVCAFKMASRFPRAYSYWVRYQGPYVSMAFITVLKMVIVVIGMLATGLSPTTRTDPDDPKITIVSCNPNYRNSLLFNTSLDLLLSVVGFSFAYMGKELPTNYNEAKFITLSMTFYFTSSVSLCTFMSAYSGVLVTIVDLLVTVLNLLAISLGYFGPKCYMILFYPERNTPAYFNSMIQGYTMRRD
UniProt Q8TE23, sequence (Q7RTX0 21-852, chain 2 of 2, further chain): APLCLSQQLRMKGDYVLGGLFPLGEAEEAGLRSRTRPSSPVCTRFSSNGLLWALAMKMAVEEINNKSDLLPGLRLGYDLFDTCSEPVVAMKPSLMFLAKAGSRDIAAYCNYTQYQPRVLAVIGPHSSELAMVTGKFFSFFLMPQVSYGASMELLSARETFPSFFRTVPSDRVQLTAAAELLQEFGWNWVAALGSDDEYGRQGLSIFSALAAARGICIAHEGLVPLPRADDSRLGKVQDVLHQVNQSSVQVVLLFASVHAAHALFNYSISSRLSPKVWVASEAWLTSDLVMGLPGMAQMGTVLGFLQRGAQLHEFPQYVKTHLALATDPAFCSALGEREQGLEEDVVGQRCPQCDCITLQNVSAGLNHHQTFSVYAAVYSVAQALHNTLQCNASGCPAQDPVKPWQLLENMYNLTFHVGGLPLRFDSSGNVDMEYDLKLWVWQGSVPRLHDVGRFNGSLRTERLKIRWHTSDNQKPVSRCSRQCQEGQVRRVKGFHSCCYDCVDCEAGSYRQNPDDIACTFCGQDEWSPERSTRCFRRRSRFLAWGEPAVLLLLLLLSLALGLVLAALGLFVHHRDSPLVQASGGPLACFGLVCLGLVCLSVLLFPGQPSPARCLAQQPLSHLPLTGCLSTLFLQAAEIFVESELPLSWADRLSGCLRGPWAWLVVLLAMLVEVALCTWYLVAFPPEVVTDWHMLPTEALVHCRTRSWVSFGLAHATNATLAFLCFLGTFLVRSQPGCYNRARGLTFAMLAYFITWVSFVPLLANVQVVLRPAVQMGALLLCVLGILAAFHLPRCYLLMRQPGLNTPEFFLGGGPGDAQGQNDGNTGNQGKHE

Regarding “neoculin (heterodimer of polypeptide NAS and polypeptide NBS) (from UniProt Q6F495 23-135; P19667 23-136) (ligand)”, the response of the cells around pH 7, against the response in the acidic region (fraction of the response) was 0.5 and the response of the cells around pH 8, against the response in the acidic region (fraction of the response) was found to be 0.1.
